This is an account of results in patent publication US5955431A, “Mast cell protease peptide inhibitors” (Brigham and Women's Hospital, Inc., priority 1998, dated 1999).

Data set [1] deals with T1, recombinant mMCP-6-FLAG (Mus musculus, UniProt P21845).
T1 construct: endogenous pro-peptide followed by EK-susceptible peptide (Asp-Asp-Asp-Asp-Lys) (N, cleaved yes); made in house; host or cells: baculovirus; Spodoptera frugiperda 9 for virus, Trichoplusia ni High Five insect cells for expression
T1 sequence (P21845 32-276): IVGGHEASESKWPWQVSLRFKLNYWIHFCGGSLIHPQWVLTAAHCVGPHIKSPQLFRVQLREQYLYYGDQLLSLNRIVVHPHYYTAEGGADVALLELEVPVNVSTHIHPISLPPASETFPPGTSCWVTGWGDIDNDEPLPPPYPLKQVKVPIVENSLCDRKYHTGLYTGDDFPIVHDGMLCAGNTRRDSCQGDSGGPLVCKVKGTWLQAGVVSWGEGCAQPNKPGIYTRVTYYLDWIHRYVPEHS
In words: spectrophotometric cleavage of trypsin-susceptible p-nitroanilide substrates by EK-activated mMCP-6-FLAG. In kind it is biochemical. As to the method: Purified pro-EK-mMCP-6-FLAG (~100 μg in 100 μl) was separately mixed with 100 μl of a pH 5.2 buffer consisting of 50 mM sodium acetate and 5 mM calcium chloride. One μl of a solution containing 550 U of calf intestine EK (Biozyme) was added to each, and the mixture was incubated at 37° C. generally for 3 h to allow EK to activate the zymogen in the absence of heparin. The spectrophotometric method of Svendsen and coworkers (Throm. Res. 1972, 1:267-278) was used to determine whether or not mMCP-6-FLAG is enzymatically active. Generally, 1-μl samples of each activation reaction were placed in 1 ml of a pH 7.4 buffer containing 25 mM sodium phosphate, 1 mM EDTA, and 50 μg of tosyl-Gly-Pro-Lys-p-nitroanilide. The change in optical density at 405 nm was then determined after a 3-min incubation at room temperature. The ability of recombinant mMCP-6-FLAG to cleave the trypsin-susceptible substrates tosyl-Gly-Pro-Arg-p-nitroanilide, benzoyl-Ile-Glu-Gly-Arg-p-nitroanilide, benzoyl-Pro-Phe-Arg-p-nitroanilide, and acetyl-Ile-Glu-Ala-Arg-p-nitroanilide were also evaluated.

Data set [2] concerns the target T2, recombinant mMCP-7-FLAG (Mus musculus, UniProt Q02844).
T2 construct: made in house; host or cells: insect cells (described in earlier work of the same group)
In words: cleavage of p-nitroanilide substrate by mMCP-7-FLAG. The data set is classed as biochemical. The settings on record: in vitro.

The subject of data set [3] is neutrophils. Kind of data set: emigration of neutrophils into the peritoneal cavity after injection of tryptase. The data set is classed as in vivo, BALB/c mice. The text has this: mMCP-6-FLAG-Induced Emigration of Neutrophils Into the Peritoneal Cavity and mMCP-6-Induced Growth of Fibroblasts and their Adhesion to Fibronectin--This experiment is discussed below.
mMCP-6-Induced Emigration of Neutrophils Into the Peritoneal Cavity of BALB/c Mice--The mast cells that reside in the peritoneal cavity of BALB/c mice express mMCP-6 but not mMCP-7 (Stevens et al., Proc. Natl. Acad. Sci. USA 1994, 91:128-132). […] Thus, the direct or indirect chemotaxis activity of mMCP-6 is relatively neutrophil specific. It also appears that tryptase treatment results in a relatively persistent recruitment of neutrophils into the peritoneal cavity.

In data set [4] the test system is Swiss albino mouse skin-derived 3T3 fibroblasts. In words: adhesion and growth of fibroblasts on fibronectin-coated culture dishes. In kind it is cell-based. The settings on record: for adhesion/shape of fibroblasts on fibronectin-coated dishes: 15 min at 37° C. The procedure:
However, these cells will become less adhesive and divide in vitro when they are trypsin treated. To determine if mMCP-6-FLAG could specifically alter the growth and/or adhesion of these cells, the fibroblasts were allowed to attach to replicate fibronectin-coated culture dishes and then were incubated for 15 min at 37° C. with buffer alone or buffer containing either pro-EK-mMCP-6-FLAG, mMCP-6-FLAG, mMCP-7-FLAG, or trypsin. […] SDS-PAGE/immunoblot analysis of the supernatants from the result cultures confirmed that fibronectin was degraded in the mMCP-6-FLAG-treated cultures but not in the pro-EK-mMCP-6-FLAG or mMCP-7-FLAG treated cultures.

Data set [5] concerns mouse fibronectin. Kind of data set: in vitro degradation of fibronectin by recombinant tryptases. In kind it is biochemical. To be noted: for cleavage of fibronectin in vitro: SDS-PAGE of digests. As to the method:
In Vitro Degradation of Fibronectin by Recombinant mMCP-6-FLAG--Five μg of purified mouse fibronectin (Alexis) was suspended in 1 mM EDTA and 25 mM sodium phosphate, pH 7.4, containing 0.01 U EK, 0.5 μg recombinant pro-EK-mMCP-6-FLAG, 0.5 μg recombinant mMCP-6-FLAG (activated with 0.01 U EK), or 0.5 μg recombinant mMCP-7FLAG (activated with 0.01 U EK). After an incubated for various lengths of times, the resulting digests were subjected to SDS-PAGE. In one experiment, the N-terminal amino acid sequences; of the major fibronectin fragments in the mMCP-FLAG digest were determined.

Where a SMILES comes first, the peptide text is derived from it. The star is where a group is joined. pNA = O=[N+]([O-])c1ccc(N*)cc1

T2 sequence (Q02844 29-273): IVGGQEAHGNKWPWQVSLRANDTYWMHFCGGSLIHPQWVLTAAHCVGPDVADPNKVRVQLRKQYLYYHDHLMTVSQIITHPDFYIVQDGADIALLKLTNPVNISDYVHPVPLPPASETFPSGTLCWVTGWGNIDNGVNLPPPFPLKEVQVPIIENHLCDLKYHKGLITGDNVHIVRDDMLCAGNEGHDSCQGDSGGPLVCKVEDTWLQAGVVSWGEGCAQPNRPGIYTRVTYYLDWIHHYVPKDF

`CC[C@H](C)[C@H](NC(C)=O)C(=O)N[C@@H](CCC(=O)O)C(=O)N[C@@H](C)C(=O)N[C@@H](CCCN=C(N)N)C(=O)Nc1ccc([N+](=O)[O-])cc1` [acetyl-Ile-Glu-Ala-Arg-p-nitroanilide] (Ac-IEAR-pNA): the “cleavage of substrate by mMCP-6-FLAG” value in data set [1] (in the presence or absence of heparin) was “does not effectively cleave”. Also, in data set [2], the “cleavage of substrate by mMCP-7-FLAG compared with mMCP-6-FLAG” value is listed as “much better than mMCP-6-FLAG”.
As to “mMCP-7-FLAG: EK-activated recombinant mouse mast cell protease 7 (tryptase) with FLAG peptide”, the “neutrophil chemotaxis activity in the in vivo assay” value in data set [3] (enzymatically active tryptase, peritoneal cavity) was “very little, if any”. Further, in data set [4], the “contact inhibition of treated fibroblasts” value was “do not lose their contact inhibition”, the “rate of proliferation of treated fibroblasts” value is reported as “do not increase their rate of proliferation” and the “adhesion/shape of fibroblasts on fibronectin-coated dishes” value is on record as “continued to adhere”. In data set [5], the “cleavage of fibronectin in vitro” value is “not”.

B1: mMCP-6-FLAG: EK-activated recombinant mouse mast cell protease 6 (tryptase) with the FLAG peptide attached to its C-terminus (protein, UniProt P21845 32-276, looked up)
Tryptase beta-2: T1 sequence (P21845 32-276)
modifications: C-terminal FLAG tag
As to B1, the “persistence of induced neutrophilia” value in data set [3] (kinetic experiments, peritoneal cavity) was “at least 3 days”. Besides, the “influx of neutrophils in the peritoneal cavity” value in data set [3] (six to 36 h after intraperitoneal administration) is given as “pronounced influx of neutrophils”. In data set [1] (recombinant, EK-activated), the “pH of optimal enzymatic activity” value is around 7.4. For the same molecule, the “adhesion/shape of fibroblasts on fibronectin-coated dishes” value in data set [4] is “rapidly induced the cultured fibroblasts to round up”. Further, the “fibroblasts remaining attached to the culture dish” value in data set [4] (40 min incubation) is on record as “very few fibroblasts remained attached”. Further, the “degradation of fibronectin in culture supernatants” value in data set [4] (SDS-PAGE/immunoblot analysis) is “degraded”. Further, the “number of fibronectin fragments obtained” value in data set [5] (60-min incubation, tryptase bound to heparin) was found to be 2 fragments.

B2: mMCP-6-FLAG/heparin complex: recombinant mMCP-6-FLAG bound to heparin glycosaminoglycan (protein, UniProt P21845 32-276, looked up)
Tryptase beta-2: T1 sequence (P21845 32-276)
modifications: C-terminal FLAG tag; complexed with heparin
Take B2: the “cleavage of fibronectin in vitro” value in data set [5] was “readily cleaved”.
